Measured values published in PMC3775154.

Columns and labels:
Experiment in all cases: SPR
[1] = target: recombinant human FcRn (human) (UniProt P55899)
[2] = target: recombinant human FcγRIIIa F158 (human) (UniProt P08637)
[3] = target: recombinant human FcγRIIIa V158 (human)
[4] = target: recombinant human FcγRIIIb (human) (UniProt O75015)
[5] = target: recombinant human FcγRIIb (human) (UniProt P31994)
[6] = target: recombinant human FcγRIa (human) (UniProt P12314)
Sequence of UniProt P12314 (P12314 16-374): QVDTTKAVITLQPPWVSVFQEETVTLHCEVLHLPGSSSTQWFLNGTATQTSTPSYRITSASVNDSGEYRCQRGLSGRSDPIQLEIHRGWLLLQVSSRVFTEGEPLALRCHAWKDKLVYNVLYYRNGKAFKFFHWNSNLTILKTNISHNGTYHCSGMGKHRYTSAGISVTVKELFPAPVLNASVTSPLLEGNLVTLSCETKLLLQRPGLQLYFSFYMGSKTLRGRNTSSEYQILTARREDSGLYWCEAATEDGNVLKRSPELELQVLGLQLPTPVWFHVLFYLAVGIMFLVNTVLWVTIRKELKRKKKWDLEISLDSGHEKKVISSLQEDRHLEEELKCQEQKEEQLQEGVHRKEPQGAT

Sequence of UniProt P31994 (P31994 43-310): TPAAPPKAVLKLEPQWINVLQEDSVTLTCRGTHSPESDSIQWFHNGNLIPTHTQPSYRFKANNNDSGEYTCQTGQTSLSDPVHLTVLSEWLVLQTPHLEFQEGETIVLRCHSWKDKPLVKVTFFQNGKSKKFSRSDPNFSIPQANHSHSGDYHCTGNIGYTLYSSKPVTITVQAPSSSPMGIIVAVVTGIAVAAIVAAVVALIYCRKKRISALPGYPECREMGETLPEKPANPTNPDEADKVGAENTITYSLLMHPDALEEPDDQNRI
Sequence of recombinant human FcγRIIIa V158 (human) (P08637 17-208): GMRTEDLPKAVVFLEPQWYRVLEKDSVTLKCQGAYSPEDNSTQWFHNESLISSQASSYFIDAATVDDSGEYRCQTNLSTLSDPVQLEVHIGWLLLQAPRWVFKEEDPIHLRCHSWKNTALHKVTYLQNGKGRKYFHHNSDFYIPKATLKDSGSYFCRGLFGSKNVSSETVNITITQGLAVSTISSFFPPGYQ
Sequence of UniProt P55899 (P55899 24-297): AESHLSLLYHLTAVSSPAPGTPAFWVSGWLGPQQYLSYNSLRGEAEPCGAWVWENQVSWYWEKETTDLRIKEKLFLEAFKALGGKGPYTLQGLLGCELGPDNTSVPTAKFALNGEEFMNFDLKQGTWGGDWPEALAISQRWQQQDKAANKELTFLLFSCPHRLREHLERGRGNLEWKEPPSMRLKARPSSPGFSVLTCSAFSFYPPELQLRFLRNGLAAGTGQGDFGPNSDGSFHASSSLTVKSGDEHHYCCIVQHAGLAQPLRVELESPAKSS
Sequence of UniProt O75015 (O75015 17-200): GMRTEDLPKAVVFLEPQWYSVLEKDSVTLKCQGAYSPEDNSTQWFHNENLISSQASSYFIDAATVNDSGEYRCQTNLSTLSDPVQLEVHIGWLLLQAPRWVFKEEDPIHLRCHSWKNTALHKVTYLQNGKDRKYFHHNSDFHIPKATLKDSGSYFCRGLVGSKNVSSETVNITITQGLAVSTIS

Substance	Kd [1]	Kd [2]	Kd [3]	Kd [4]	Kd [5]	Kd [6]
proposed biosimilar rituximab GP2013 (antibody)	0.54 to 0.58 µM	8.5 to 10.9 µM	4.2 to 5 µM	9.9 to 12.4 µM	11 to 12.7 µM	0.0109 to 0.0124 µM
originator rituximab (antibody)	0.55 to 0.58 µM	7.4 to 10.3 µM	3.5 to 4.9 µM	9.2 to 11.7 µM	11.4 to 12.8 µM	0.0104 to 0.0118 µM
